Assay results taken from patent US20110038869A1 (Genmab, published 2011).
Positions count from the first letter of the chain named.

B1: Antibody 016 (antibody, human IgG1, V domains shown)
VH: QVQLVESGGGVVQPGRSLRLSCAASGFTFSSYGIHWVRQAPGKGLEWVAVIGYDGSDKNYADSVKGRFTIFRDNSKNTLYLQMNSLRAEDTAVYYCARDQLGDAFDIWGQGTMVTVSS
VL: EIVLTQSPATLSLSPGERATLSCKASQSVSSSLAWYQQKPGQAPRLLIYDASNRATGIPARFSGSGSGTDFTLTISSLEPEDFAVYYCQQRSNWPPYTFGQGTKLEIKR
notes: Human antibody; also called HuMab 016
B2: Antibody 063 (antibody, human IgG1, V domains shown)
VH: EVQLLESGGGLVQPGGSLRLSCAASGFTFSSYAMSWVRQAPGKGLEWVSAISDSGGSTYYADSVKGRFTISRDNSKNTLYLQMNSLRAEDTAAYYCAKEIAVALFDYWGQGTLVTVSS
VL: B1 VL with K24R, S32Y, N93S
notes: Human antibody; also called HuMab 063
B3: Antibody 053 (antibody, human IgG1, V domains shown)
VH: QVQLVESGGGVVQPGRSLRLSCAVSGFTFRSYGMHWVRQAPGKGLEWVAVIWYDGSIKYYADSVKGRFTISRDNSKNTLYLQMNSLRAEDTAVYFCAREGGRDAFDIWGQGTMVTVSS
VL: AVQLTQSPSSLSASVGDRVTITCRASQGISSALAWYQQKPGKAPKLLIYDASSLESGVPSRFSGSGSGTDFTLTISSLQPEDFATYCCQQFNSYPHTFGGGTKVEIKR
notes: Human antibody; also called HuMab 053

Legend:
CD32bECDHis [1] = molecular target: T1, CD32bECDHis (human, UniProt P31994 43-223, limits assumed); test: ELISA on coated CD32bECDHis
T1 construct: Produced in HEK-293F cells; also called extracellular domain of CD32b with C-terminal His tag; soluble CD32b
T1 sequence (looked up): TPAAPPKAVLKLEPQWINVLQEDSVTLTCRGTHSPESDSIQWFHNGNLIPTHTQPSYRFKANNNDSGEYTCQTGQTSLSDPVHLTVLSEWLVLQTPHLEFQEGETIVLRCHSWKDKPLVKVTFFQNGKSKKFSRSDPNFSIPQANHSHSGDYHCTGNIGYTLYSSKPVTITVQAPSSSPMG
Experimental: The specificity of the obtained anti-CD32b HuMabs was evaluated by ELISA. ELISA plates (Microlon; Greiner Bio-One) were coated overnight at 4° C. with 2 μg/ml of CD32aECDHis and CD32bECDHis in PBS, pH 7.4. Coated ELISA plates were washed with PBS, blocked for one hour at room temperature with 2% (v/v) chicken serum (Gibco, Paisley, Scotland) in PBS and washed again with PBS. Subsequently, HuMabs, serially diluted in PBSTC (PBS supplemented with 2% (v/v) chicken serum and 0.05% (v/v) Tween-20), were incubated for 1 hr at RT under shaking conditions (300 rpm). Bound HuMabs were detected using HRP-conjugated goat-anti-human IgG antibodies (Jackson ImmunoResearch Europe) diluted 1:10,000 in PBSTC, which were incubated for 1 hr at RT under shaking conditions (300 rpm). […] Binding curves were analyzed using non-linear regression (sigmoidal dose-response with variable slope) using GraphPad Prism V4.03 software.

[2] = molecular target: T2, full length CD32a on stably transfected IIA1.6 cells (human, UniProt P12318 34-317); test: flow cytometry on IIA1.6-CD32a cells
T2 construct: whole, on cells; also called IIA1.6-CD32a; CD32a-expressing IIA1.6 cells
T2 sequence (looked up): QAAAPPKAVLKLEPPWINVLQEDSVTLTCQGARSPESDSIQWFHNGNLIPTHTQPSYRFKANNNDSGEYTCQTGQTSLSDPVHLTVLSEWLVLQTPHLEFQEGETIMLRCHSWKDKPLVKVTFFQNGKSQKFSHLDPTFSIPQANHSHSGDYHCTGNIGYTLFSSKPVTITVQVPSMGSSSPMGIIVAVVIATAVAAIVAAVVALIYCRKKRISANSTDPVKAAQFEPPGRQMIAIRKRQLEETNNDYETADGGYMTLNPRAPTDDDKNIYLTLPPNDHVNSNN
Experimental: (§1) After harvesting and counting, IIA1.6 cells stably transfected with full length CD32a and CD32b (van den Herik-Oudijk et al., 1994), control IIA1.6 cells and Daudi-luc cells were resuspended in PBS (1×10⁶ cells/ml). Cells were put in 96-well V-bottom plates (100 μl/well) and washed twice with FACS buffer (PBS supplemented with 0.1% BSA and 0.02% Na-azide). Thereafter, 50 μl of serially diluted HuMab in FACS buffer was added to the cells and incubated for 30 minutes at 4° C. After washing three times with FACS buffer, 50 μl of phycoerythrin (PE)-conjugated rabbit anti-human IgG (Jackson ImmunoResearch Europe), diluted 1:200 in FACS buffer, was added. After 30 minutes at 4° C. (in the dark), cells were washed three times, and specific binding of the HuMabs was detected by flow cytometry on a FACSCalibur (BD Biosciences). […] Binding curves were analyzed using non-linear regression (sigmoidal dose-response with variable slope) using GraphPad Prism V4.03 software (GraphPad Software, San Diego, Calif., USA).

[3] = molecular target: T3, full length CD32b2 on transfected IIA1.6 cells (human, UniProt P31994-2 43-291); test: flow cytometry on IIA1.6-CD32b2 cells
T3 construct: whole, on cells; also called IIA1.6-CD32b2
T3 sequence (looked up): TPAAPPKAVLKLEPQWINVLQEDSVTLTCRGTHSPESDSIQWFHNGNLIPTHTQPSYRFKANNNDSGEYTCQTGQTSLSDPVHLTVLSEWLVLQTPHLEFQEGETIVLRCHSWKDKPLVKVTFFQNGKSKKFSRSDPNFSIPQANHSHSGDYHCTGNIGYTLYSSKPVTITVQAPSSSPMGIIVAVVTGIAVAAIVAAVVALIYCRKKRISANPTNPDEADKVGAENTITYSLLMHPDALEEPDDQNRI
Experimental: as §1
To analyze binding of anti-CD32b HuMabs to CD32b1 and CD32b2, IIA1.6 cells transfected with full length CD32b1 or CD32b2 (van den Herik-Oudijk et al., 1994) were prepared as described supra. The assay was performed as described supra. Flow cytometry was performed on a FACS Canto II (BD Biosciences).

CD32bECDHis [4] = molecular target: T1, CD32bECDHis; test: TR-FRET competition against HuMab-KLH-AlexaFluor 647
Source text: To study the interaction of anti-CD32b HuMabs with CD32b and CD32a in more detail TR-FRET technology was applied. To this end, CD32bECDHis and CD32aECDHis were labeled with a fluorescent donor molecule directed against the histidine tag (Anti-6×His Europium3+, PerkinElmer, Boston Mass.).
Briefly, all dilutions were made in 0.5× Lance detection buffer (PerkinElmer, Boston Mass.) supplemented with 0.2% BSA (obtained via dilution of 7.5% BSA Stabilizer solution, cat: CR84-100, PerkinElmer) and 0.03% (v/v) Tween-20 (Riedel de Haen, Seelze, Germany). CD32bECDHis and CD32aECDHis were diluted to 0.5 μg/ml. […] Anti-6×His Europium3+ (PerkinElmer, Boston Mass.) was diluted to 0.15 μg/ml. A 4-fold serial dilution of the tested HuMab antibody was made in a 96 wells non-binding plate (cat. 650261, Greiner Bio-one, Frickenhausen, Germany), ranging from 10 μg/ml-0.04 ng/ml. […] After overnight incubation at 4° C. in the dark, fluorescence was measured using an EnVision 2101 Multilabel reader (PerkinElmer, Boston, Mass.) applying the following settings; Lance/Delfia dual mirror, emission filter 615-665 nm, excitation filter 320 nm, delay time 60 μs, window 100 μs, 100 flashes, 2000 μs per cycle and bidirectional row-by-row reading. Binding curves were analyzed using non-linear regression (sigmoidal dose-response with variable slope) using GraphPad Prism V4.03 software (GraphPad Software, San Diego, Calif., USA).

CD32bECDHis [5] = molecular target: T1, CD32bECDHis; test: SPR BIAcore 3000, antibody immobilized, CD32bECDHis analyte
Experimental: Antibody binding to CD32a and CD32b was analyzed by surface plasmon resonance in a BIAcore 3000 (GE Healthcare). CD32aECDHis and CD32bECDHis derived from HEK293 cells were used for the analysis. HuMab antibodies were immobilized on the CM-5 sensor chip according to the procedure recommended by the manufacturer. Briefly, after surface activation by EDC and NHS HuMab antibody was injected over the activated CM-5 surface in 10 mM sodium-acetate, pH ranging from 4.0 to 5.5 at 5 μl/min. followed by 1 M Ethanolamine for deactivation. Concentration series of CD32bECDHis in HBS-EP buffer were injected over the immobilized antibodies at a flow rate of 30 μl/min for 180 sec. Regeneration of the HuMab surface was performed by injection of 10 mM Glycine-HCl pH 2.0 or 10 mM sodium acetate pH 3.0. […] Kinetic analysis is performed using double reference subtraction and model 1:1 (langmuir) binding analysis. Specificity was studied by injecting CD32aECDHis at a concentration of […] over immobilized HuMab and isotype control antibodies under the same conditions as for the CD32b measurements.

biotinylated CD32bECDHis [6] = molecular target: T4, biotinylated CD32bECDHis (human, UniProt P31994 43-223, limits assumed, biotinylated (sites not given)); test: competition ELISA, competitor 016
T4 sequence (looked up): T1 sequence (looked up)
Experimental: (§2) ELISA wells were coated overnight at 4° C. with anti-CD32b HuMabs serially diluted in PBS. The ELISA wells were washed with PBS, blocked for one hour at room temperature with 2% (v/v) chicken serum (Gibco, Paisley, Scotland) in PBS and washed again with PBS. Subsequently, the immobilized antibodies were incubated with biotinylated CD32bECDHis serially diluted in PBSTC. After washing with PBS/Tween, bound biotinylated CD32bECDHis was incubated with Streptavidin-poly-HRP (Sanquin, Amsterdam, The Netherlands) for 1 hr at RT an the reaction was developed as described supra.
(§3) To this end, ELISA wells coated with anti-CD32b HuMabs were incubated in the presence of an excess of CD32b-specific antibody and the predetermined concentration of biotinylated CD32bECDHis in fluid phase. The reaction was developed as described.

biotinylated CD32bECDHis [7] = molecular target: T4, biotinylated CD32bECDHis; test: competition ELISA, competitor 020
Experimental: as §2, §3

biotinylated CD32bECDHis [8] = molecular target: T4, biotinylated CD32bECDHis; test: competition ELISA, competitor 022
Experimental: as §2, §3

biotinylated CD32bECDHis [9] = molecular target: T4, biotinylated CD32bECDHis; test: competition ELISA, competitor 024
Experimental: as §2, §3

biotinylated CD32bECDHis [10] = molecular target: T4, biotinylated CD32bECDHis; test: competition ELISA, competitor 026
Experimental: as §2, §3

biotinylated CD32bECDHis [11] = molecular target: T4, biotinylated CD32bECDHis; test: competition ELISA, competitor 028
Experimental: as §2, §3

biotinylated CD32bECDHis [12] = molecular target: T4, biotinylated CD32bECDHis; test: competition ELISA, competitor 034
Experimental: as §2, §3

biotinylated CD32bECDHis [13] = molecular target: T4, biotinylated CD32bECDHis; test: competition ELISA, competitor 038
Experimental: as §2, §3

biotinylated CD32bECDHis [14] = molecular target: T4, biotinylated CD32bECDHis; test: competition ELISA, competitor 053
Experimental: as §2, §3

biotinylated CD32bECDHis [15] = molecular target: T4, biotinylated CD32bECDHis; test: competition ELISA, competitor 063
Experimental: as §2, §3

biotinylated CD32bECDHis [16] = molecular target: T4, biotinylated CD32bECDHis; test: competition ELISA, competitor 2B6
Experimental: as §2, §3

Row | Binder | EC50 (CD32bECDHis [1]) | EC50 [2] | EC50 [3] | IC50 (CD32bECDHis [4]) | Kd (CD32bECDHis [5]) | koff (CD32bECDHis [5]) | kon (CD32bECDHis [5]) | % residual binding (biotinylated CD32bECDHis [6]) | % residual binding (biotinylated CD32bECDHis [7]) | % residual binding (biotinylated CD32bECDHis [8]) | % residual binding (biotinylated CD32bECDHis [9]) | % residual binding (biotinylated CD32bECDHis [10]) | % residual binding (biotinylated CD32bECDHis [11]) | % residual binding (biotinylated CD32bECDHis [12]) | % residual binding (biotinylated CD32bECDHis [13]) | % residual binding (biotinylated CD32bECDHis [14]) | % residual binding (biotinylated CD32bECDHis [15]) | % residual binding (biotinylated CD32bECDHis [16]) | % of maximal Fab-mediated inhibition (CD32bECDHis [4])
1 | B1 | 0.28 nM | 0.25 nM | 0.11 nM | 0.24 nM | 1.1 nM | 0.0028 s⁻¹ | 2.66e+06 M⁻¹ s⁻¹ | – | – | – | – | – | – | – | – | – | – | – | –
2 | B2 | – | – | – | – | – | – | – | 103% | 59% | 29% | 23% | 70% | 49% | 8% | 102% | 79% | 0% | 98% | ~70%
3 | B3 | – | – | 1.06 nM | – | – | – | – | 98% | 19% | 8% | 6% | 26% | 13% | 4% | 168% | 40% | 43% | 195% | –
